The target of the assay is Human fibronectin (intact) (human, UniProt P02751-8, 125I-labelled in the cell binding assays; coupled to Sepharose in the affinity chromatography). The experiment in a line: inhibition of labelled fibronectin binding to S. aureus cells.

B1: 165 kD fibronectin binding protein (FNBP) isolated from E. coli pFR001 (receptor)
chain: ASEQKTTTVEENGNSATDNKTSETQTTATNVNHIEETQSYNATVTEQPSNATQVTTEEAPKAVQAPQTAQPANIETVKEEVVKEEAKPQVKETTQSQDNSGDQRQVDLTPKKATQNQVAETQVEVAQPRTASESKPRVTRSADVAEAKEASNAKVETGTDVTSKVTVEIGSIEGHNNTNKVEPHAGQRAVLKYKLKFENGLHQGDYFDFTLSNNVNTHGVSTARKVPEIKNGSVVMATGEVLEGGKIRYTFTNDIEDKVDVTAELEINLFIDPKTVQTNGNQTITSTLNEEQTSKELDVKYKDGIGNYYANLNGSIETFNKANNRFSHVAFIKPNNGKTTSVTVTGTLMKGSNQNGNQPKVRIFEYLGNNEDIAKSVYANTTDTSKFKEVTSNMSGNLNLQNNGSYSLNIENLDKTYVVHYDGEYLNGTDEVDFRTQMVGHPEQLYKYYYDRGYTLTWDNGLVLYSNKANGNEKNGPIIQNNKFEYKEDTIKETLTGQYDKNLVTTVEEEYDSSTLDIDYHTAIDGGGGYVDGYIETIEETDSSAIDIDYHTAVDSEAGHVGGYTESSEESNPIDFEESTHENSKHHADVVEYEEDTNPGGGQVTTESNLVEFDEESTKGIVTGAVSDHTTVEDTKEYTTESNLIELVDELPEEHGQAQGPVEEITKNNHHISHSGLGTENGHGNYDVIEEIEENSHVDIKSELGYEGGQNSGNQSFEEDTEEDKPKYEQGGNIVDIDFDSVPQIHGQNKGNQSFEEDTEKDKPKYEHGGNIIDIDFDSVPHIHGFNKHTEIIEEDTNKDKPSYQFGGHNSVDFEEDTLPKVSGQNEGQQTIEEDTTPPIVPPTPPTPEVPSEPETPTPPTPEVPSEPETPTPPTPEVPSEPETPTPPTPEVPAEPGKPVPPAKEEPKKPSKPVEQGKVVTPVIEINEKVKAVAPTKKPQSKKSELPETGGEESTNKGMLFGGLFSILGLALLRRNKKNHKA
For B1, the “fold more active than the 87 kD protein on a molar basis” value turned out to be 30 times.

Values taken from patent US5770702, “Fibronectin binding protein as well as its preparation” (dated 1998).
